According to article PMC12905498 (2026):

How the values were obtained:
[1] = target: T1, Plasmodium berghei HAP2 domain 3 (P. berghei); assay: BLI
T1 chain: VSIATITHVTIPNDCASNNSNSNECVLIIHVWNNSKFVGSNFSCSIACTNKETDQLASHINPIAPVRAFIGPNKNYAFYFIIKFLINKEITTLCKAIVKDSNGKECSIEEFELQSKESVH

[2] = target: T2, Plasmodium falciparum HAP2 domain 3 (PfHAP2 D3 HisAvi), deglycosylated (P. falciparum, deglycosylated with PNGase F); assay: BLI
T2 chain: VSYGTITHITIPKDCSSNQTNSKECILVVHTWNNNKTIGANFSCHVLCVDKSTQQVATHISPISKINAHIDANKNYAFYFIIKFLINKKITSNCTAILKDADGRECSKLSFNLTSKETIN

[3] = target: T2, Plasmodium falciparum HAP2 domain 3 …; assay: BLI; single experiment
[4] = target: T3, Plasmodium vivax HAP2 domain 3 (P. vivax); assay: BLI
T3 chain: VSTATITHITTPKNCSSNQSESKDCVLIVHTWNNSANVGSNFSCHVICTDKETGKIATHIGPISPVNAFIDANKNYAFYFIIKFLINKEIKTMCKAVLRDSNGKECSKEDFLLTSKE

B1: anti-PbHAP2 D3 mAb 6.14 (variable regions in AbVec-hIgG1 and AbVec-IgKappa) (antibody, V domains shown)
VH: EVQLVESGGGLVKPGGSLKLSCAASEFTFSDYGMHWVRQAPEKGLEWVASISSGSNSIYYSDTVKGRFTISRDNAKSILFLQMTSLRSEDTAMYYCSREAYFAMDYWGQGTSVTVSS
VL: DIQMTQSPSSLSAILGGKVTITCKASQDIHKYIAWYQHKPGKGPRLLIYYTSTLQPGIPSRFSGSGSGRDYSFSISNLEPEDVATYFCLQYDNLYTFGGGTKVEIE
Kd [1]: 12.1 nM

B2: WNbFc 335 (nanobody WNb 335 fused to hinge and Fc of human IgG1) (Fc fusion)
chain: QVQLQESGGGLVQPGGSLRLSCEASASGTIVALGTMAWYRQAPGNQRELVATITEESSTYYADSVKGRCTISRDNARNTMYLRLNSLKPEDTAVYYCNLANFWGQGTQVTVSS
Kd [2]: 38.8 nM | Kd [3]: 35.2 nM

B3: WNbFc 334 (nanobody WNb 334 fused to hinge and Fc of human IgG1) (Fc fusion)
chain: QVQLQESGGGLVQPGGSLRLSCAASGFTLDDYAIGWFRQDPGKGREGVSCISLSDGSTYYADAVTGRFTISRDNAKDTVYLQMNSLKPEDTAVYYCAALSQKQMTTVQAMCAVPIANYWGQGTQVTVSS
Kd [2]: 22.2 nM | Kd [1]: 1440 nM | Kd [3]: 19.7 nM

B4: anti-PbHAP2 D3 mAb 1.12 (variable regions in AbVec-hIgG1 and AbVec-IgKappa) (antibody, V domains shown)
VH: EFQLLQSGPELVKPGASVKISCKASDYSLSDYNMNWVRQRSGKSLEWIGVINPNHGTTHYNQKFKGKATLTVDQSSSTAYMQLTSLTSEDSAVYYCASPIHYGNHVPFDYWGQGTTVTVSS
VL: DIQMTQTTSSLSASLGDRVTISCRTGQDISNYLNWYQQKPDGTVKLLIYFTSRLHSGVPSRFSGSGSGTDYSLTISNLEQEDIATYFCQQGITLPWTFGGGTKLEIK
Kd [1]: 5.1 nM

B5: WNbFc 333 (nanobody WNb 333 fused to hinge and Fc of human IgG1) (Fc fusion)
chain: QVQLQESGGGSVQPGGSLRLSCAASGFTLEDYAIGWFRQAPGKGREGISCISSTDGSTHYADSAKGRFTISRDDAKNTAYLQMNSLKVEDTDVYYCAALSQEHMITVQRMCAVPAAHYWGRGTQVTVSS
Kd [2]: 10.5 nM | Kd [4]: 2250 nM | Kd [1]: 3650 nM | Kd [3]: 9.5 nM
